# Tested on: Escherichia coli TOP10
# Assay: shrunken log2 fold change of peptide-encoding DNA abundance (4.5 h post-induction vs induction); higher = less antimicrobial activity (less host growth inhibition)
# Conditions: time post-induction: 4.5 h; library: site-saturation at positions 5, 18, 19, 20
# 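Also: peptides expressed intracellularly from a pBAD plasmid library in pooled LB shake-flask culture, induced with 0.3% L-arabinose, DNA abundance read by NGS, three biological replicates, DESeq2 with apeglm shrinkage.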
row,Sequence,shrunken log2 fold change
1,RRIRLRPPRLPRPRPRPDKPPRP,-0.228
2,RRIRHRPPRLPRPRPRPRTNPRP,0.0589
3,RRIRWRPPRLPRPRPRPDLLPRP,0.0586
4,RRIRLRPPRLPRPRPRPGPKPRP,0.352
5,RRIRNRPPRLPRPRPRPCILPRP,-0.119
6,RRIRFRPPRLPRPRPRPDEKPRP,-0.0935
7,RRIRDRPPRLPRPRPRPKYCPRP,-0.0392
8,RRIRNRPPRLPRPRPRPHFIPRP,0.121
9,RRIRLRPPRLPRPRPRPWPEPRP,0.243
10,RRIRHRPPRLPRPRPRPWNLPRP,-0.278
11,RRIRMRPPRLPRPRPRPWSTPRP,-0.144
12,RRIRKRPPRLPRPRPRPDHDPRP,0.0562
13,RRIRCRPPRLPRPRPRPRHCPRP,0.423
14,RRIRPRPPRLPRPRPRPLHWPRP,0.481
15,RRIRERPPRLPRPRPRPRFWPRP,0.549
16,RRIRGRPPRLPRPRPRPSLDPRP,0.607
17,RRIRSRPPRLPRPRPRPSENPRP,-0.113
18,RRIRMRPPRLPRPRPRPAKCPRP,0.147
19,RRIRFRPPRLPRPRPRPCHQPRP,-0.188
20,RRIRSRPPRLPRPRPRPPDPPRP,0.472
21,RRIRDRPPRLPRPRPRPFSDPRP,-0.016
22,RRIRPRPPRLPRPRPRPDWRPRP,0.321
23,RRIRLRPPRLPRPRPRPRTSPRP,0.288
24,RRIRNRPPRLPRPRPRPSYTPRP,-1.13
25,RRIRHRPPRLPRPRPRPNQIPRP,-0.327

row,Sequence,shrunken log2 fold change
1,RRIRDRPPRLPRPRPRPKYYPRP,-0.193
2,RRIRLRPPRLPRPRPRPFYSPRP,-0.133
3,RRIRIRPPRLPRPRPRPMDNPRP,-0.096
4,RRIRFRPPRLPRPRPRPAGDPRP,0.378
5,RRIRIRPPRLPRPRPRPRLMPRP,-0.0272
6,RRIRPRPPRLPRPRPRPKRRPRP,-0.093
7,RRIRCRPPRLPRPRPRPGHEPRP,0.00505
8,RRIRIRPPRLPRPRPRPVYFPRP,-0.807
9,RRIRMRPPRLPRPRPRPAMLPRP,1.22
10,RRIRARPPRLPRPRPRPMGTPRP,0.304
11,RRIRVRPPRLPRPRPRPHNRPRP,-0.241
12,RRIRTRPPRLPRPRPRPWWLPRP,0.125
13,RRIRGRPPRLPRPRPRPSGGPRP,0.391
14,RRIRCRPPRLPRPRPRPCCQPRP,-0.342
15,RRIRLRPPRLPRPRPRPENYPRP,-0.041
16,RRIRPRPPRLPRPRPRPEHCPRP,-0.034
17,RRIRQRPPRLPRPRPRPIWYPRP,0.0288
18,RRIRNRPPRLPRPRPRPFWHPRP,0.189
19,RRIRKRPPRLPRPRPRPLTRPRP,0.31
20,RRIRDRPPRLPRPRPRPVKFPRP,0.284
21,RRIRDRPPRLPRPRPRPWRQPRP,-0.114
22,RRIRFRPPRLPRPRPRPPDMPRP,-0.147
23,RRIRSRPPRLPRPRPRPLIHPRP,-0.279
24,RRIRIRPPRLPRPRPRPMAIPRP,-0.274
25,RRIRWRPPRLPRPRPRPLEGPRP,-0.158

row,Sequence,shrunken log2 fold change
1,RRIRRRPPRLPRPRPRPSWMPRP,-0.324
2,RRIRFRPPRLPRPRPRPNQNPRP,-0.443
3,RRIRERPPRLPRPRPRPSRKPRP,0.113
4,RRIRERPPRLPRPRPRPHHGPRP,-0.43
5,RRIRVRPPRLPRPRPRPPIKPRP,-0.151
6,RRIRVRPPRLPRPRPRPAPTPRP,0.638
7,RRIRMRPPRLPRPRPRPPLIPRP,0.242
8,RRIRERPPRLPRPRPRPHGTPRP,0.0284
9,RRIRHRPPRLPRPRPRPCEAPRP,-0.136
10,RRIRRRPPRLPRPRPRPVCPPRP,0.32
11,RRIRERPPRLPRPRPRPMPAPRP,-0.0153
12,RRIRKRPPRLPRPRPRPRCRPRP,0.506
13,RRIRVRPPRLPRPRPRPAVIPRP,-0.0266
14,RRIRARPPRLPRPRPRPFPAPRP,0.439
15,RRIRSRPPRLPRPRPRPIFAPRP,0.192
16,RRIRDRPPRLPRPRPRPHVYPRP,-0.0179
17,RRIRCRPPRLPRPRPRPMCGPRP,-0.0984
18,RRIRSRPPRLPRPRPRPIVKPRP,-0.143
19,RRIRTRPPRLPRPRPRPYRGPRP,-0.519
20,RRIRKRPPRLPRPRPRPMVKPRP,0.427
21,RRIRMRPPRLPRPRPRPEHFPRP,0.0315
22,RRIRFRPPRLPRPRPRPDHLPRP,-0.00942
23,RRIRNRPPRLPRPRPRPCRKPRP,-0.0373
24,RRIRSRPPRLPRPRPRPHNAPRP,-0.197
25,RRIRIRPPRLPRPRPRPQRWPRP,0.304

row,Sequence,shrunken log2 fold change
1,RRIRNRPPRLPRPRPRPIWYPRP,-0.0752
2,RRIRCRPPRLPRPRPRPLSSPRP,-0.173
3,RRIRRRPPRLPRPRPRPCVDPRP,0.163
4,RRIRQRPPRLPRPRPRPQDVPRP,-0.0199
5,RRIRTRPPRLPRPRPRPQCLPRP,0.0552
6,RRIRKRPPRLPRPRPRPNPLPRP,0.0246
7,RRIRGRPPRLPRPRPRPWTPPRP,0.75
8,RRIRIRPPRLPRPRPRPWGVPRP,-0.888
9,RRIRPRPPRLPRPRPRPLHIPRP,0.656
10,RRIRNRPPRLPRPRPRPMRSPRP,1.09
11,RRIRHRPPRLPRPRPRPRAAPRP,0.368
12,RRIRVRPPRLPRPRPRPRIHPRP,-0.219
13,RRIRARPPRLPRPRPRPDWLPRP,0.432
14,RRIRNRPPRLPRPRPRPHWCPRP,0.0251
15,RRIRPRPPRLPRPRPRPTRGPRP,0.543
16,RRIRCRPPRLPRPRPRPSAIPRP,-0.014
17,RRIRFRPPRLPRPRPRPMFRPRP,0.0591
18,RRIRCRPPRLPRPRPRPPIVPRP,-0.089
19,RRIRLRPPRLPRPRPRPSYVPRP,-0.13
20,RRIRFRPPRLPRPRPRPFRIPRP,-0.687
21,RRIRDRPPRLPRPRPRPNQNPRP,0.0279
22,RRIRARPPRLPRPRPRPITWPRP,0.0845
23,RRIRARPPRLPRPRPRPILYPRP,-0.348
24,RRIRFRPPRLPRPRPRPHKVPRP,-0.196
25,RRIRPRPPRLPRPRPRPRKTPRP,0.0393

row,Sequence,shrunken log2 fold change
1,RRIRKRPPRLPRPRPRPTTTPRP,0.494
2,RRIRMRPPRLPRPRPRPCTPPRP,0.154
3,RRIRIRPPRLPRPRPRPWQAPRP,-0.115
4,RRIRERPPRLPRPRPRPQSAPRP,-0.227
5,RRIRQRPPRLPRPRPRPECMPRP,-0.0252
6,RRIRTRPPRLPRPRPRPQSEPRP,-0.141
7,RRIRCRPPRLPRPRPRPWFPPRP,-0.699
8,RRIRERPPRLPRPRPRPAYCPRP,0.0672
9,RRIRVRPPRLPRPRPRPEVVPRP,-0.0305
10,RRIRWRPPRLPRPRPRPEVYPRP,-0.0423
11,RRIRTRPPRLPRPRPRPHESPRP,-0.0124
12,RRIRGRPPRLPRPRPRPGLLPRP,0.791
13,RRIRGRPPRLPRPRPRPYVFPRP,-0.141
14,RRIRPRPPRLPRPRPRPATKPRP,0.29
15,RRIRQRPPRLPRPRPRPFPAPRP,-0.0923
16,RRIRERPPRLPRPRPRPSWWPRP,2.26
17,RRIRYRPPRLPRPRPRPFNKPRP,-0.00496
18,RRIRTRPPRLPRPRPRPLCQPRP,-0.0705
19,RRIRWRPPRLPRPRPRPWSVPRP,-0.174
20,RRIRERPPRLPRPRPRPFQDPRP,0.0039
21,RRIRRRPPRLPRPRPRPNVPPRP,0.032
22,RRIRTRPPRLPRPRPRPQAEPRP,-0.00758
23,RRIRDRPPRLPRPRPRPGDMPRP,0.164
24,RRIRVRPPRLPRPRPRPRYAPRP,-0.000525
25,RRIRVRPPRLPRPRPRPNMYPRP,0.0145

row,Sequence,shrunken log2 fold change
1,RRIRVRPPRLPRPRPRPIEKPRP,0.0502
2,RRIRIRPPRLPRPRPRPEKSPRP,0.028
3,RRIRMRPPRLPRPRPRPMHRPRP,-0.156
4,RRIRVRPPRLPRPRPRPHSSPRP,-0.531
5,RRIRTRPPRLPRPRPRPLRDPRP,0.282
6,RRIRLRPPRLPRPRPRPTQTPRP,-0.0101
7,RRIRYRPPRLPRPRPRPPTTPRP,-0.165
8,RRIRWRPPRLPRPRPRPVMWPRP,0.236
9,RRIRSRPPRLPRPRPRPMYGPRP,-0.844
10,RRIRQRPPRLPRPRPRPVCEPRP,-0.00878
11,RRIRKRPPRLPRPRPRPFRAPRP,0.201
12,RRIRYRPPRLPRPRPRPYHTPRP,-0.0274
13,RRIRNRPPRLPRPRPRPFVVPRP,-0.676
14,RRIRDRPPRLPRPRPRPEHNPRP,0.14
15,RRIRARPPRLPRPRPRPYLHPRP,-1.18
16,RRIRVRPPRLPRPRPRPGIRPRP,-0.0476
17,RRIRERPPRLPRPRPRPDTTPRP,0.0503
18,RRIRRRPPRLPRPRPRPMPFPRP,-0.0201
19,RRIRTRPPRLPRPRPRPAAMPRP,0.154
20,RRIRQRPPRLPRPRPRPHLAPRP,-0.0779
21,RRIRIRPPRLPRPRPRPKTSPRP,-0.465
22,RRIRTRPPRLPRPRPRPNCTPRP,-0.485
23,RRIRPRPPRLPRPRPRPPAWPRP,0.452
24,RRIRCRPPRLPRPRPRPSSIPRP,-0.565
25,RRIRARPPRLPRPRPRPFVGPRP,-0.0485

# — the supplement of paper PMC9112550, “Optimization of the antimicrobial peptide Bac7 by deep mutational scanning” (BMC Biology, 2022)
